Reference: article PMC3274613 (Bioorganic & medicinal chemistry letters, 2012)
Bridge positions count the residues as written; N and C are the ends. Square brackets hold non-standard residues; d marks the D form. Peptide text beside a SMILES is read from it.

How the values were obtained:
[1] = test system: B16/F1 melanoma-bearing C57 mice; experiment: in vivo; conditions: C57, mouse, iv, 2 h
in vivo = experiment: in vivo; set-up: species or system mice; conditions: C57, mouse, iv, total radioactivity
B16/F1 melanoma cells = experiment: Cellular internalization in B16/F1 melanoma cells; format: cell-based, murine
[2] = mouse, in vivo
[3] = test system: B16/F1 melanoma-bearing C57 mouse; experiment: SPECT/CT melanoma imaging; format: in vivo; conditions: 2 h post-injection, approximately 6.7 MBq, one mouse
αvβ3 integrin receptor = conditions: relative to RGD-Lys-(Arg11)CCMSH; cited from earlier work
MC1 receptor = conditions: read-out: MC1 receptor binding affinity; M21 melanoma cells; cited from earlier work
[4] = 0.037 MBq, Uptake ratio Tumor/Lung

CC(C)[C@H](NC(=O)[C@@H]1CCCN1C(=O)[C@H](CCCNC(=N)N)NC(=O)[C@H](CS)NC(=O)[C@H](Cc1c[nH]c2ccccc12)NC(=O)[C@H](CCCNC(=N)N)NC(=O)[C@@H](Cc1ccccc1)NC(=O)[C@H](Cc1c[nH]cn1)NC(=O)[C@H](CCC(=O)O)NC(=O)[C@H](CS)NC(=O)[C@H](CS)NC(=O)[C@H](CCCCN)NC(=O)[C@@H]1CC(=O)N[C@@H](CCCNC(=N)N)C(=O)N[C@@H](C)C(=O)N[C@@H](CC(=O)O)C(=O)N[C@H](Cc2ccc(O)cc2)C(=O)N1)C(N)=O [^99mTc-RAD-Lys-(Arg^11)CCMSH, metal not drawn] (RAD[dY]DKCCEH[dF]RWCRPV-NH2; lactam N-5; C-terminus assumed)
Bladder, percent injected dose [1]: 70.34 ± 3.28 %ID
Blood, percent injected dose/gram [1]: 0.44 ± 0.11 %ID/g
Bone, percent injected dose/gram [1]: 0.52 ± 0.31 %ID/g
Heart, percent injected dose/gram [1]: 0.30 ± 0.10 %ID/g
Kidneys, percent injected dose/gram [1]: 50.10 ± 18.56 %ID/g
Lung, percent injected dose/gram [1]: 0.78 ± 0.17 %ID/g
Muscle, percent injected dose/gram [1]: 0.28 ± 0.30 %ID/g
Spleen, percent injected dose/gram [1]: 0.50 ± 0.09 %ID/g
Stomach, percent injected dose/gram [1]: 1.92 ± 0.24 %ID/g
tissue to tissue ratio at 0.5 h (in vivo; [4]): 4.26
tissue to tissue ratio at 2 h (in vivo; [4]): 22.9
tissue to tissue ratio at 4 h (in vivo; [4]): 39.1
tissue to tissue ratio at 24 h (in vivo; [4]): 31.9
tissue uptake dose at 2 h (in vivo; Bladder, percent injected dose): 69.54 ± 0.63 %ID
Activity internalized (B16/F1 melanoma cells; 20 min post incubation): 59.20 ± 5.10%
Activity internalized (B16/F1 melanoma cells; after 2 h incubation): 78.24 ± 1.13%
Transformed to a more lipophilic metabolite in urine [2]: 18%
Visualization of flank melanoma tumors by SPECT/CT [3]: visualized clearly

CC(C)[C@H](NC(=O)[C@@H]1CCCN1C(=O)[C@H](CCCNC(=N)N)NC(=O)[C@H](CS)NC(=O)[C@H](Cc1c[nH]c2ccccc12)NC(=O)[C@H](CCCNC(=N)N)NC(=O)[C@@H](Cc1ccccc1)NC(=O)[C@H](Cc1c[nH]cn1)NC(=O)[C@H](CCC(=O)O)NC(=O)[C@H](CS)NC(=O)[C@H](CS)NC(=O)[C@H](CCCCN)NC(=O)[C@@H]1CC(=O)N[C@@H](CCCNC(=N)N)C(=O)N[C@@H](C)C(=O)N[C@@H](CC(=O)O)C(=O)N[C@H](Cc2ccc(O)cc2)C(=O)N1)C(N)=O [RAD-Lys-(Arg^11)CCMSH] (RAD[dY]DKCCEH[dF]RWCRPV-NH2; lactam N-5; C-terminus assumed)
Decrease of αvβ3 integrin receptor binding affinity on switch from RGD to RAD (αvβ3 integrin receptor): 248 fold
IC50 (MC1 receptor): 0.3 nM
